Positions count from the first letter of the chain named.
Tests used:
[1] = target: T1, mouse CD20 (mouse, UniProt P19437 1-291); assay: cell ELISA, crude periplasmic extract, CHO-K1 expressing mouse CD20 against parental CHO-K1
T1 construct: whole, on cells; also called mCD20; CHO-K1-mCD20
T1 sequence (looked up): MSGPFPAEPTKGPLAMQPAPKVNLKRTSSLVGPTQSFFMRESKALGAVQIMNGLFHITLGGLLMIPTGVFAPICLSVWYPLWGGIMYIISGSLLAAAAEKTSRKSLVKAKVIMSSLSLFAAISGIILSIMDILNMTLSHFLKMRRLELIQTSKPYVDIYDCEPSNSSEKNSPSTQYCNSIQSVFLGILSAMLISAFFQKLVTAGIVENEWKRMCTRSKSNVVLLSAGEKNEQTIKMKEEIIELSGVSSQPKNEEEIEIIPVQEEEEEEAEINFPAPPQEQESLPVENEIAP
Experimental: The library was subjected to 3 consecutive rounds of panning (in solution), performed on stably transfected CHO-K1 cells expressing mouse CD20. A parallel panning was performed on parental (non-transfected CHO-K1) cells to serve as negative control for the calculation of CD20-specific phage enrichment. The enrichment for antigen-specific phages was assessed after each round of panning by comparing the number of phagemid particles eluted from transfected cells with the number of phagemid particles eluted from parental cells. […] In total, 285 colonies (95 from each round of panning) were randomly selected and their crude periplasmic extracts (including soluble VHHs) were analyzed by cell ELISA for specific binding to transfected CHO-K1, as compared to parental cells. […] The 11 different VHHs belong to 2 different groups.
The library was subjected to 2 consecutive rounds of panning (in solution), performed on stably transfected CHO-K1 cells expressing mouse CD20 as described above. Here, the phage population was enriched (for antigen-specific phages) about 2- and 45-fold after 1st and 2nd rounds of panning, respectively. Here, 190 colonies, randomly picked from 2nd round, were tested by cell ELISA as above and 10 colonies scored positive. Based on sequence data, the 10 positive colonies represented 8 different VHHs (FIG. 4, bottom panel). The 8 different VHHs belong to 2 different groups. One of the groups identified here is the same group as one of those identified above.

[2] = target: T2, human CD20 (human, UniProt P11836 1-297); assay: cell ELISA, crude periplasmic extract, CHO-K1 expressing human CD20 against parental CHO-K1
T2 construct: The forward primer starts at codon 2; also called hCD20; CHO-K1-hCD20
T2 sequence: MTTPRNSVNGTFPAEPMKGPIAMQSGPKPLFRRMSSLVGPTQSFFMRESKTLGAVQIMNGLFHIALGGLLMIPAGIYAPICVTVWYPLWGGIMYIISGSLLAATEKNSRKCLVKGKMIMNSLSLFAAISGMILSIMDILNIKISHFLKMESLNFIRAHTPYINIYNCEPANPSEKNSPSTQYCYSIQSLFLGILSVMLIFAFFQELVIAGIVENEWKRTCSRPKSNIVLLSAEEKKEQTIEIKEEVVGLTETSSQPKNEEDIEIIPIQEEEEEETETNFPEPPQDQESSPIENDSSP

[3] = target: T2, human CD20; assay: FACS, 5 ug/ml VHH on CHO-K1 cells stably expressing human CD20, FITC anti-his detection
Experimental: To determine the binding activities of the VHHs specific for human or mouse CD20, FACS analysis was carried out. Specifically, CHO-K1 cells and CHO-K1 cells stably expressing human or mouse CD20 were incubated with 5 μg/ml of the VHHs produced in accordance with the application. A monoclonal FITC labelled anti-his antibody (Genscript #A01620) was applied as secondary stain. FACS analysis was done on a FacsCalibur flow cytometer (Becton Dickinson).

B1: R2MUC36 (VHH)
VHH: QVQLQESGGGLVQAEGSLRLSCAASGRTRDANAMGWFRQAPGKERELVAAISWSGSRTYYADSVKGRFTISRDNVMHTVYLSMNSLKPEDTAVYYCAADRSIEVQIADYDYWGRGTQVTVSS
notes: Whole entry = VHH-AAA-HA-His6 (pMECS construct)
[1]
  binding result: binds

B2: 2HCD40 (VHH)
VHH: QVQLQESGGGLVQAGGSLRLSCAASGRTVGSYSMGWFRQAPGKEREFVAAVTWSGASPYYADSVKGRFTISRDNAKNTVYLQMNSLKPEDTAVYYCAANPTYSGGWHAEYWGQGTQVTVSS
notes: as for B1
[2]
  binding result: binds

B3: 2HCD68 (VHH)
VHH: B2 VHH with A14P, G26R, R27F, V29L, G30D, S31Y, S33A, M34I
notes: as for B1
[2]
  binding result: binds

B4: 2HCD59 (VHH)
VHH: B2 VHH with L11S, V12E, A14P, W53R
notes: as for B1
[2]
  binding result: binds

B5: 2HCD17 (VHH)
VHH: B2 VHH with T52I
notes: as for B1
[3]
  binding result: binds

B6: 2HCD88 (VHH)
VHH: B2 VHH with G16D
notes: as for B1
[2]
  binding result: binds

B7: 2HCD16 (VHH)
VHH: QVQLQESGGGLVQAGGSLRLSCAASGRTFSRQSMGWFRQAPGKEREFVAVITWSGGSPYYADSVRGRFTISRDNAKNTVYLQMNSLKPEDTAVYYCAAPVSYGSQWLADYWGQGTQVTVSS
notes: as for B1
[2]
  binding result: binds

B8: R3CD7 (VHH)
VHH: B7 VHH with T28S, R31S, Q32V, S33N, T52D, A61T, A75S, P99G, Q105R, A108G
notes: as for B1
[2]
  binding result: binds

B9: 2HCD35 (VHH)
VHH: B7 VHH with R31G, Y80H
notes: as for B1
[2]
  binding result: binds

B10: R3CD105 (VHH)
VHH: B7 VHH with R31N, Q32Y, S33N, V50A, T52D, D62A, K76E, V100L, Q105T
notes: as for B1
[2]
  binding result: binds

B11: 2HCD81 (VHH)
VHH: B7 VHH with R31S, Q32Y, S33N, T52S, R65K, Q105S
notes: as for B1
[3]
  binding result: binds

B12: R3CD18 (VHH)
VHH: QVQLQESGGGLVQAGGSLRLSCAASGRTFSNSNMGWFRQAPGKEREFVAVIDWSGGSPYYTDSVRGRFTISRDNAKNTVYLQMNRLKPEDTAVYYCAGGVSFGSRWLSDYWGQGTQVTVSS
notes: as for B1
[2]
  binding result: binds

B13: 2HCD73 (VHH)
VHH: B7 VHH with K43E
notes: as for B1
[3]
  binding result: binds

B14: 2HCD42 (VHH)
VHH: B7 VHH with R31S, Q32Y, S33A
notes: as for B1
[2]
  binding result: binds

B15: 2HCD22 (VHH)
VHH: B7 VHH with G16D, R65K
notes: as for B1
[2]
  binding result: binds

B16: 2MC39 (VHH)
VHH: QVQLQESGGGLAQAGNSLRISCVASGNTFDTRAMGWFRQAPGKEREFVAAISRSSFNTYYSDSVTGRFTISRDNAKNTVYLQMNSLKPEDTAVYYCAAGKYGMKWRDGADYWGQGTQVTVSS
notes: as for B1
[1]
  binding result: binds

B17: 2MC20 (VHH)
VHH: B16 VHH with A12V, A14T, N16G, I20L, V23A
notes: as for B1
[1]
  binding result: binds

B18: 2MC42 (VHH)
VHH: B16 VHH with L11S, A12V, A14T, N16G, S17T, R19T, I20L, K43E
notes: as for B1
[1]
  binding result: binds

B19: 2MC82 (VHH)
VHH: B16 VHH with A14E, N16G, I20L, T78M
notes: as for B1
[1]
  binding result: binds

B20: 2MC38 (VHH)
VHH: B16 VHH with A12V, N16E, A97V
notes: as for B1
[1]
  binding result: binds

B21: 2MC51 (VHH)
VHH: B16 VHH with A97V
notes: as for B1
[1]
  binding result: binds

B22: R2MUC70 (VHH)
VHH: QVQLQESGGGLVQAGGSLRLSCAASGRDFATYSMAWFRQAPGKERESVATISWSGQRTRYADSVKGRFTISRDNAKNTVYLQMNSLKPEDTAVYYCAAPRTWGEFPPTQYDSWGQGTQVTVSS
notes: as for B1
[1]
  binding result: binds

B23: R3MUC58 (VHH)
VHH: B22 VHH with A14P
notes: as for B1
[1]
  binding result: binds

B24: R3MUC22 (VHH)
VHH: B22 VHH with D28T, A30S, A35G, S47F, T50I
notes: as for B1
[1]
  binding result: binds

B25: R3MUC66 (VHH)
VHH: B22 VHH with A35T, K87R
notes: as for B1
[1]
  binding result: binds

B26: R2MUC85 (VHH)
VHH: B22 VHH with A14P, A24T
notes: as for B1
[1]
  binding result: binds

B27: R2MUC21 (VHH)
VHH: B22 VHH with G16D, A30S, A35G
notes: as for B1
[1]
  binding result: binds

B28: 2MC52 (VHH)
VHH: B22 VHH with A23V, D28T, A30N, A35G, S47F, T50S, T58S, A98S
notes: as for B1
[1]
  binding result: binds

B29: R3MUC17 (VHH)
VHH: B22 VHH with Q13P
notes: as for B1
[1]
  binding result: binds

B30: R3MUC56 (VHH)
VHH: B22 VHH with G16D
notes: as for B1
[1]
  binding result: binds

B31: R3MUC57 (VHH)
VHH: B22 VHH with K43E
notes: as for B1
[1]
  binding result: binds

B32: 2MC57 (VHH)
VHH: B22 VHH with A98M
notes: Whole entry = VHH-AAA-HA-His6 (pMECS construct); also called mCD20 Nb
[1]
  binding result: binds

B33: R3MUC75 (VHH)
VHH: B22 VHH with L11S, A14T, A30S, A35G
notes: as for B1
[1]
  binding result: binds

B34: 2HCD43 (VHH)
VHH: QVQLQESGGGLVQPGGSLRLSCTASGFTLDYYAIGWLRQAPGKEREGVSCISSSGGSTNYADSVKGRFTISRDNAKNTVYLLMNSLKPEDTAVYYCAAERTWVSNYYCSGDGDGYDYDYWGQGTQVTVSS
notes: as for B1
[2]
  binding result: binds

B35: 2HCD25 (VHH)
VHH: QVQLQESGGGLAQAGGSLRLSCAASGRTFSMGWFRQAPGKEREFVAAITYSGGSPYYASSVRGRFTISRDNAKNTVYLQMNSLKPEDTAVYYCAANPTYGSDWNAENWGQGTQVTVSS
notes: Whole entry = VHH-AAA-HA-His6 (pMECS construct); also called hCD20Nb
[3]
  binding result: binds

Source: patent US20190092871A1 (VIB VZW, published 2019)
